The target of series [1] is KaiC-AA (S431A, T432A) (UniProt Q79PF4). As to the kind of experiment: cryo-EM structure; single-particle cryo-EM of pure KaiC-AA or KaiC-EE, 0.35 ug/ul in 20 mM Tris-HCl (pH 8.0), 150 mM NaCl, 5 mM MgCl2, 0.5 mM EDTA, 1 mM ATP; incubated at 30 °C for 6 h.
Series [2] concerns the molecule itself. Described as above.

Take “KaiC-AA (S431A, T432A) (from UniProt Q79PF4 14-484) (natural protein)”: the stoichiometry N in series [1] is 6.

B1: KaiC-EE (S431E, T432E) (natural protein)
chain: EHQAIAKMRTMIEGFDDISHGGLPIGRSTLVSGTSGTGKTLFSIQFLYNGIIEFDEPGVFVTFEETPQDIIKNARSFGWDLAKLVDEGKLFILDASPDPEGQEVVGGFDLSALIERINYAIQKYRARRVSIDSVTSVFQQYDASSVVRRELFRLVARLKQIGATTVMTTERIEEYGPIARYGVEEFVSDNVVILRNVLEGERRRRTLEILKLRGTSHMKGEYPFTITDHGINIFPLGAMRLTQRSSNVRVSSGVVRLDEMCGGGFFKDSIILATGATGTGKTLLVSRFVENACANKERAILFAYEESRAQLLRNAYSWGMDFEEMERQNLLKIVCAYPESAGLEDHLQIIKSEINDFKPARIAIDSLSALARGVSNNAFRQFVIGVTGYAKQEEITGLFTNTSDQFMGAHSITDSHIEEITDTIILLQYVEIRGEMSRAINVFKMRGSWHDKAIREFMISDKGPDIKDSFRNFERIISGSPTRI
notes: source: hexamer fractions selected; not shown: His6, N-terminal, cleaved
As for B1, the “stoichiometry N” value in series [2] worked out at 6.

For orientation: stoichiometry N means the number of molecules, sites or subunits per partner or assembly.
